# Source: patent publication US20220251236A1 (Boehringer Ingelheim, published 2022)
# T1: Human DLL3-His (human, UniProt Q9NYJ7 27-492)
# T1 construct: also called huDLL3-His; hu DLL3
# T1 sequence: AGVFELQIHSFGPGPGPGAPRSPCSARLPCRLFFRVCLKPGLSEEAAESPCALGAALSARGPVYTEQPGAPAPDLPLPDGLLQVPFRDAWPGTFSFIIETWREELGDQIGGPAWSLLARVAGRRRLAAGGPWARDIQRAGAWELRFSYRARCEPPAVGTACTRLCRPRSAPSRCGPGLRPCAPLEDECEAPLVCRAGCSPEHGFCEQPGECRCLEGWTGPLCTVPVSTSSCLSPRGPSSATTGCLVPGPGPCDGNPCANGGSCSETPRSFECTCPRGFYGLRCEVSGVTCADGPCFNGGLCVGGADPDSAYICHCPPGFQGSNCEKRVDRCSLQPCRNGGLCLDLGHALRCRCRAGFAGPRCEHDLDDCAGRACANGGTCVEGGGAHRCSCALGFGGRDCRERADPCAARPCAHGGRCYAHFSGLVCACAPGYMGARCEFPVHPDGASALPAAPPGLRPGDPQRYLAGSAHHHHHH
# Target: T1, Human DLL3-His
# Assay: SPR (ProteOn XPR36), bispecific captured on protein A/G, DLL3 as analyte, Example 4A; Table 2A (Example 4A SPR run)
# Method: The binding affinity of purified DLL3/CD3 bispecific constructs for recombinant human and cyno DLL3-ECD and Fc-fusion proteins of human and cyno CD3 εγ subunits was determined by Surface Plasmon Resonance (SPR), using a ProteOn XPR36 instrument (Bio-Rad). The running buffer and all dilutions (except where stated) were done in PBS-T-EDTA. The GLM sensor chip (Bio-Rad) was normalized and pre-conditioned as per the manufacturer's recommendations. The sensor chip was activated with equal mixture of EDC/s-NHS in the horizontal direction for 300 sec at a flow rate of 30 ul/min and immobilized with protein A/G (20 ug/ml in 10 mM acetate pH 4.5) in the horizontal direction for 300 sec at a flowrate of 30 ul/min resulting in ˜5000 RU of protein A/G on the surface. The sensor chip was deactivated with 1M ethanolamine HCl in the horizontal direction for 300 sec at a flowrate of 30 μl/min.
# For binding kinetic determination to DLL3, bispecific molecules were captured individually on the protein A/G surface vertically for 250 sec at a flowrate of 25 μl/min. The baseline was stabilized by injecting PBS-T-EDTA for 60 sec at a flowrate of 40 μl/min horizontally. The analyte (hu DLL3 or cy DLL3) was injected horizontally over the captured antibody for 600 sec at a flowrate of 40 μl/min and a dissociation for 2700 sec. […]
binder,measurement,value
"DLL3#3/CD3#1 (bispecific antibody, human IgG1, kappa, lambda, L234A L235A, Heterodimer of one DLL3 chain and one CD3 chain (scFab-Fc, knob-in-hole)) chain 1: DIQMTQSPSAMSASVGDRVTITCRASQGISNYLVWFQQKPGKAPKRLIYAVSSLYSGVPSRFSGSGSGTEFTLTISSLQPEDFATYYCLQHDSYPYTFGQGTKLEIKRTVAAPSVFIFPPSDEQLKSGTASVVCLLNNFYPREAKVQWKVDNALQSGNSQESVTEQDSKDSTYSLSSTLTLSKADYEKHKVYACEVTHQGLSSPVTKSFNRGECGGGGSEGKSSGSGSESKSTEGKSSGSGSESKSTGGGGSQVQLVQSGAEVKKPGASVKVSCKASGYTFTSYYVHWVRQAPGQGLEWMVIINPGGGTTSYAQKFLGRVTMTRDTSTNTVYMELKSLRSEDTAVYYCARGEAVTGNYFYYGMDVWGQGTTVTVSSASTKGPSVFPLAPSSKSTSGGTAALGCLVKDYFPEPVTVSWNSGALTSGVHTFPAVLQSSGLYSLSSVVTVPSSSLGTQTYICNVNHKPSNTKVDKRVEPKSCDKTHTCPPCPAPEAAGGPSVFLFPPKPKDTLMISRTPEVTCVVVDVSHEDPEVKFNWYVDGVEVHNAKTKPREEQYNSTYRVVSVLTVLHQDWLNGKEYKCKVSNKALPAPIEKTISKAKGQPREPQVYTLPPSREEMTKNQVSLWCLVKGFYPSDIAVEWESNGQPENNYKTTPPVLDSDGSFFLYSKLTVDKSRWQQGNVFSCSVMHEALHNHYTQKSLSLSPG chain 2: EAVVTQEPSLTVSPGGTVTLTCRSSTGAVTTSNYANWVQEKPGQLPRGLIGGTNKRAPWVPARFSGSLLGGKAALTLSGAQPEDEAEYFCALWYSNLWVFGGGTKLTVLGQPKAAPSVTLFPPSSEELQANKATLVCLISDFYPGAVKVAWKADGSPVNTGVETTTPSKQSNNKYAASSYLSLTPEQWKSHRSYSCQVTHEGSTVEKTVAPAECSGGGGSEGKSSGSGSESKSTEGKSSGSGSESKSTGGGGSEVQLVESGGGLVQPGGSLKLSCAASGFTFNTYAMNWVRQAPGKGLEWVARIRSKYNNYATYYADSVKDRFTISRDDSKNTAYLQMNNLKTEDTAVYYCVRHGNFGNSYVSWFAYWGQGTLVTVSAASTKGPSVFPLAPSSKSTSGGTAALGCLVKDYFPEPVTVSWNSGALTSGVHTFPAVLQSSGLYSLSSVVTVPSSSLGTQTYICNVNHKPSNTKVDKRVEPKSCDKTHTCPPCPAPEAAGGPSVFLFPPKPKDTLMISRTPEVTCVVVDVSHEDPEVKFNWYVDGVEVHNAKTKPREEQYNSTYRVVSVLTVLHQDWLNGKEYKCKVSNKALPAPIEKTISKAKGQPREPQVYTLPPSREEMTKNQVSLSCAVKGFYPSDIAVEWESNGQPENNYKTTPPVLDSDGSFFLVSKLTVDKSRWQQGNVFSCSVMHEALHNRFTQKSLSLSPG",Kd,< 0.01 nM
